This is an account of results in the Immune Epitope Database (IEDB).

Some targets named below: HLA-A*68:01; HLA-A*03:01; HLA-A*31:01; HLA-A*33:01; HLA-A*11:01.
Holding throughout (assay): IEDB peptide-MHC binding, purified MHC/competitive/radioactivity; filed as Kd, often an IC50 or EC50 that approximates it; ≥ and ≤ were set here for values at or beyond the usual limits of such assays
The mark [1] stands for this setting: source organism: Vaccinia virus WR.
Where [2] appears, read: source organism: Mammarenavirus juninense.
[3] abbreviates: source organism: SARS coronavirus Tor2.
[4] abbreviates: source organism: Lassa virus Josiah.
Where [5] appears, read: source organism: Mammarenavirus guanaritoense.

By Kd is commonly meant the constant that tells how readily two partners part at equilibrium. In the case of HLRVLFSIFY, the Kd was 2.08 µM in the test with HLA-A*68:01 (setting [1]); 0.0375 µM in the test with HLA-A*03:01 (setting [1]); 1.01 µM with HLA-A*31:01 (setting [1]); 1.85 µM in the test with HLA-A*33:01 (setting [1]); 4.97 µM in the test with HLA-A*11:01 (setting [1]).
Turning to PVIVVPVIDR, the dissociation constant Kd in the test with HLA-A*68:01 (setting [1]) is 0.0167 µM; with HLA-A*03:01 (setting [1]), 4.82 µM; in the test with HLA-A*31:01 (setting [1]) it was 13.2 µM; in the test with HLA-A*33:01 (setting [1]), 9.18 µM; in the test with HLA-A*11:01 (setting [1]), not below 21.6 µM.
For MATMLEYVRY the same measures were 0.116 µM, 0.588 µM, 1.62 µM, 13.5 µM and 0.0218 µM.
For the sequence VTISKDNLER, the Kd with HLA-A*68:01 (setting [1]) is 0.0626 µM; in the test with HLA-A*03:01 (setting [1]), not below 39 µM; with HLA-A*31:01 (setting [1]), 0.118 µM; in the test with HLA-A*33:01 (setting [1]) it was 0.357 µM; with HLA-A*11:01 (setting [1]) it was 0.0137 µM.
On to TVKTNLYMK, for which the Kd with HLA-A*68:01 (setting [1]) amounted to 0.104 µM; with HLA-A*03:01 (setting [1]) it was 3.68 µM; in the test with HLA-A*31:01 (setting [1]) it was 0.0817 µM; with HLA-A*33:01 (setting [1]) it was 6.32 µM; with HLA-A*11:01 (setting [1]), 0.0162 µM.
In the case of LINRFTMKHK, the equilibrium dissociation constant (Kd) in the test with HLA-A*03:01 (source organism: Dengue virus 2 Jamaica/1409/1983) turned out to be 0.0125 µM.
Turning to NFEALEATK, the dissociation constant Kd in the test with HLA-A*68:01 (setting [1]) is 0.704 µM; in the test with HLA-A*03:01 (setting [1]), 4.21 µM; with HLA-A*31:01 (setting [1]), 6.74 µM; in the test with HLA-A*33:01 (setting [1]), 1.06 µM; with HLA-A*11:01 (setting [1]), 0.0845 µM.
Consider QTTVNTLSER, for which the Kd with HLA-A*68:01 (setting [1]) is 0.00522 µM; with HLA-A*03:01 (setting [1]) it was 1.52 µM; with HLA-A*31:01 (setting [1]), 0.0217 µM; in the test with HLA-A*33:01 (setting [1]), 0.155 µM; with HLA-A*11:01 (setting [1]) it was 0.0768 µM.
In the case of KYIHCFRKPH, the equilibrium dissociation constant (Kd) with HLA-A*68:01 (setting [2]) is not below 70.1 µM; in the test with HLA-A*03:01 (setting [2]), not below 70 µM; with HLA-A*31:01 (setting [2]), 0.0127 µM; with HLA-A*33:01 (setting [2]) it was not below 46.1 µM; with HLA-A*11:01 (setting [2]) it was not below 69.7 µM.
On to SQIQLSLLK, for which the Kd with HLA-A*68:01 (setting [3]) was 6.27 µM; with HLA-A*03:01 (setting [3]) it was 0.892 µM; with HLA-A*31:01 (setting [3]), 18 µM; with HLA-A*33:01 (setting [3]) it was not below 77.7 µM; in the test with HLA-A*11:01 (setting [3]), 0.0292 µM.
As for KIIAVFDSK, the Kd with HLA-A*68:01 (setting [1]) came to 0.474 µM; with HLA-A*03:01 (setting [1]), 0.00819 µM; in the test with HLA-A*31:01 (setting [1]), 0.126 µM; with HLA-A*33:01 (setting [1]), 7.97 µM; with HLA-A*11:01 (setting [1]) it was 0.00668 µM.
Consider IFPGDKTSY, for which the Kd is 17.7 µM with HLA-A*68:01 (setting [1]); 11.6 µM in the test with HLA-A*03:01 (setting [1]); not below 56.7 µM with HLA-A*31:01 (setting [1]); not below 77.7 µM with HLA-A*33:01 (setting [1]); 11.7 µM with HLA-A*11:01 (setting [1]).
For the sequence SCPKPHRLNH, the Kd with HLA-A*68:01 (setting [4]) was not below 70.1 µM; with HLA-A*03:01 (setting [4]), not below 21.3 µM; with HLA-A*31:01 (setting [4]), not below 38.5 µM; with HLA-A*33:01 (setting [4]) it was not below 34.3 µM; with HLA-A*11:01 (setting [4]), not below 69.7 µM.
As for TLSPAHLINK, the equilibrium dissociation constant (Kd) stood at 0.12 µM with HLA-A*68:01 (setting [1]); 0.00205 µM with HLA-A*03:01 (setting [1]); 0.168 µM in the test with HLA-A*31:01 (setting [1]); 11.4 µM with HLA-A*33:01 (setting [1]); 0.00129 µM in the test with HLA-A*11:01 (setting [1]).
Consider TSFYLISIFL, for which the Kd is 8.08 µM with HLA-A*03:01 (setting [4]) and not below 31.1 µM with HLA-A*33:01 (setting [4]).
As for VSFLLLAGR, in the test with HLA-A*11:01 (source organism: Mammarenavirus choriomeningitidis), the dissociation constant Kd is 0.0179 µM.
In the case of SAVFKDSFLR, the Kd was found to be 0.0182 µM with HLA-A*68:01 (setting [1]); 0.664 µM in the test with HLA-A*03:01 (setting [1]); 0.0239 µM with HLA-A*31:01 (setting [1]); 0.372 µM with HLA-A*33:01 (setting [1]); 0.0459 µM with HLA-A*11:01 (setting [1]).
For LLNSMMNRDK the same measures were not below 70.2 µM, 0.0392 µM, 0.69 µM, not below 27.5 µM and 1.78 µM.
In the case of KSTVKLVQR, the Kd with HLA-A*68:01 (setting [1]) amounted to 1.53 µM; with HLA-A*03:01 (setting [1]) it was 16.5 µM; in the test with HLA-A*31:01 (setting [1]), 0.00444 µM; in the test with HLA-A*33:01 (setting [1]), 1.48 µM; with HLA-A*11:01 (setting [1]), 1.42 µM.
For PSAEDNYLAK, the Kd in the test with HLA-A*68:01 (setting [1]) was 5.71 µM; in the test with HLA-A*03:01 (setting [1]) it was not below 32.2 µM; in the test with HLA-A*31:01 (setting [1]), not below 20.3 µM; with HLA-A*33:01 (setting [1]), 4.12 µM; in the test with HLA-A*11:01 (setting [1]) it was 0.00864 µM.
For VIPFDDIVR the same measures were 0.174 µM, not below 78 µM, 0.338 µM, 0.302 µM and 9.6 µM.
For DLISYGGGWR, the Kd with HLA-A*33:01 (source organism: Dengue virus 1 Brazil/97-11/1997) was found to be 1.39 µM.
Consider SAFNDDGIY, for which the equilibrium dissociation constant (Kd) in the test with HLA-A*68:01 (setting [1]) was 1.86 µM; with HLA-A*03:01 (setting [1]), not below 78 µM; with HLA-A*31:01 (setting [1]), 9.58 µM; in the test with HLA-A*33:01 (setting [1]) it was not below 77.7 µM; in the test with HLA-A*11:01 (setting [1]), 14 µM.
In the case of VCEEFFHQK, the Kd in the test with HLA-A*68:01 (setting [5]) was 5.95 µM; with HLA-A*03:01 (setting [5]), 11.6 µM; with HLA-A*31:01 (setting [5]) it was not below 22.2 µM; with HLA-A*33:01 (setting [5]), not below 77.7 µM; with HLA-A*11:01 (setting [5]), 0.621 µM.
For NLEMIDERK, the equilibrium dissociation constant (Kd) with HLA-A*68:01 (setting [1]) is 0.0494 µM; in the test with HLA-A*03:01 (setting [1]), not below 70 µM; with HLA-A*31:01 (setting [1]), 9.46 µM; in the test with HLA-A*33:01 (setting [1]), not below 77.7 µM; with HLA-A*11:01 (setting [1]), 1.11 µM.
